The values that follow come from patent US20200109211A1 (ELSALYS BIOTECH, published 2020).

For assay [1], the target named is T1, recombinant human CD160 protein, soluble form, with a C-terminal tag of 6 histidine residues (R&D SYSTEMS) (human, UniProt O95971 27-159, limits assumed, biotinylated with EZ-Link sulfo-NHS-LC-biotin for BLI and ELISA; not biotinylated when immobilised on the CM5 chip for SPR).
T1 construct: domain: soluble form; Bought protein; also called hCD160-his; biotinylated CD160
T1 sequence: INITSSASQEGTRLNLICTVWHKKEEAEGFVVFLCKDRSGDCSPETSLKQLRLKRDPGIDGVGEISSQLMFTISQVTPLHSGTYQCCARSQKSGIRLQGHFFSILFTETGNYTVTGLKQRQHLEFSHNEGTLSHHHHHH
The experiment in a line: BLI. On the technique in general: Biolayer interferometry detects binding as a change in optical thickness at a sensor tip.

Assay [2] deals with T2, human CD160 (CD160 GPI isoform) on cells (human, UniProt O95971 25-159, GPI anchor).
T2 sequence (looked up): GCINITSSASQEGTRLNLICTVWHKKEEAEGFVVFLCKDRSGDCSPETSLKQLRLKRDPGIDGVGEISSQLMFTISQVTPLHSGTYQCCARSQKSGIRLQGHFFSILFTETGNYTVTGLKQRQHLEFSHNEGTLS
Briefly: cell-based or functional assay.

Assay [3] deals with T1, recombinant human CD160 protein, …. The experiment in a line: BLI (repeats Table 9).
For assay [4], the target named is T2, human CD160 (CD160 GPI isoform) on cells. The experiment in a line: flow cytometry on CHO-hCD160 transfectants. On the procedure:
The binding capacity of the anti-CD160 H7 antibodies and of the variants (D12 and A09) thereof in the IgG4 and IgG1 format and in the IgG1 E345K format was evaluated during the labelling of surface CD160 expressed in a recombinant line CHO-S-hCD160 (clone 2G10) in comparison with non-transfected CHO-S cells, by measuring the median fluorescence index (MFI) (see FIG. 1). For this, 5×10⁺⁵ 2G10 (CHO-S-CD160) and non-transfected CHO-S cells were labelled with 2 μg of each of these antibodies and also with the appropriate control isotypes. In FIG. 1, all the anti-CD160 tested (regardless of the isotype or the IgG format or the variant) specifically recognize human CD160 expressed recombinantly by the CHO-S cells.
In FIG. 1B, the IgG4 variants bind more efficiently to the CHO-hCD160 transfectants than H7 (which results in a median fluorescence increased by a factor of 2 compared with H7 IgG4 ELB01101 or with H7 IgG4 H310A-H435Q ELB01102), this being even in the presence of the H310A-H435Q mutations.
(In general: In flow cytometry, cells or beads pass a laser one at a time.)

The target of assay [5] is T1, recombinant human CD160 protein, …. The experiment in a line: SPR (Biacore), design close to Example 2.
Assay [6] has the same target. The experiment in a line: BLI, biotinylated CD160 at 10 nM on streptavidin sensor, antibody 3.13-100 nM.
In assay [7] the target is T2, human CD160 (CD160 GPI isoform) on cells. Briefly: flow cytometry, percentage of labelled YT2C2 NK cells (2x10^5 cells), antibody 0.39 to 50 nM [panel C]. The procedure:
The binding capacity of the anti-CD160 H7 antibody and of the H7 D12 variant in the IgG4, Fab and Fab-linker Fab format was evaluated during the labelling of surface CD160 expressed naturally on a clone of NK cell line (YT2C2), by measuring the percentage of cell labelled=percentage of binding (see FIG. 1C). For this, 2×10⁺⁵ YT2C2 cells were labelled with increasing concentration of antibodies (from 50 nM to 0.39 nM) and also with the appropriate control isotype. […] In FIG. 1C, IgG4 variants ELB01103 and ELB01104 bind more efficiently to the YT2C2 cells than the H7 IgG4 ELB01101 (which results in a EC₅₀ increased by a factor of 10 compared with H7 IgG4). This is also true for the Fab-linker-Fab format ELB01132. By contrast Fab format ELB01122 bind less efficiently to the YT2C2 cells than the H7 IgG4 ELB01101 (which results in a EC₅₀ decreased by a factor of 2 compared with H7 IgG4). This is certainly due to the monovalency of the Fab format.

Assay [8] deals with T1, recombinant human CD160 protein, …. The experiment in a line: BLI (Octet K2), biotinylated hCD160-His on streptavidin sensor, antibody as analyte. The procedure: (§1) All the experiments were carried out at 30° C. in the running buffer recommended by Fortebio (PBS with 0.1% (p/v) of bovine serum albumin (BSA) and 0.02% (v/v) Tween-20). This buffer was also used for diluting the various ligands and analytes. The samples deposited in a 96-well microplate (cat #738-0026, Dutscher) were shaken at 1000 revolutions per minute.
Between the measurements, the surfaces of the biosensor were regenerated by exposing them to 3 cycles of 5 sec in 10 mM glycine, pH 2, followed by 5 sec in running buffer. The association and dissociation phases were measured for 300 seconds. All the measurements were corrected for the basic drift by subtracting a reference well with a ligand subjected only to the running buffer.
(§2) The dissociation constants and the association (kₒₙ) and dissociation (kdis) rate constants for each antibody were calculated by applying a 1:1 interaction model, with overall mathematical modelling of curves (fit) (Rmax bound by the sensor) on the ForteBio 9.0 data analysis software.

The target is the same in assay [9]. The experiment in a line: BLI, biotinylated CD160 at 10 nM on streptavidin sensor, antibody 3.13-100 nM (row repeated from Table 9). On the procedure:
as §1, §2

Assay [10] shares this target. Briefly: BLI, biotinylated CD160 at 10 nM on streptavidin sensor, antibody 3.13-100 nM. On the procedure: as §1, §2
The source holds these as a separate data set.

B1: D12 in the IgG1 format (antibody)
heavy: not shown
light: EIVLTQSPATLSLSPGERATLSCRASQSISNHLHWYQQKPGQAPRLLIKYASQSISGIPARFSGSGSGTDFTLTISSLEPEDFAVYFCQQSNSWPLTFGGGTKVEIKRTVAAPSVFIFPPSDEQLKSGTASVVCLLNNFYPREAKVQWKVDNALQSGNSQESVTEQDSKDSTYSLSSTLTLSKADYEKHKVYACEVTHQGLSSPVTKSFNRGEC
notes: also called ELB02102
For orientation: Kd means the equilibrium constant for the complex coming apart. What is called koff is the first-order rate constant of dissociation. As usually defined, the kon is a measure of how fast the partners come together. With B1, the “Gain in KD/respective IgG” value in assay [1] was 1.9 fold. Besides, the “EC50 of NK cell activation (IFN-γ, CD69), improvement against ELB02101” value in assay [2] lay within 2 to 3 logs. Further, in assay [3], the Kd amounted to 1.55 nM, the koff was found to be 0.000654 s⁻¹ and the kon was found to be 422000 M⁻¹ s⁻¹. Besides, in assay [4], the “median fluorescence, factor against H7 IgG1” value (“median fluorescence, factor” for short) was 3 fold. Moreover, in assay [5], the “Gain in KD/respective IgG” value worked out at 2.7 fold, the Kd was 4.5 nM, the off-rate (koff) worked out at 0.00113 s⁻¹ and the kon is 251000 M⁻¹ s⁻¹. In assay [6], the equilibrium dissociation constant (Kd) was found to be 1.55 nM, the koff was found to be 0.000654 s⁻¹ and the kon turned out to be 422000 M⁻¹ s⁻¹.

B2: H7 D12 in the Fab linker Fab format (other)
heavy: QVQLVQSGAEVKKPGASVKVSCKASGYTFSDFWMQWIRQAPGQGLEWIGAIYPGDDDARVTQKFRGRATLTADKSTSTAYMELSSLRSEDTAVYYCARRGIAAVVGGFDYWGQGTTLTVSSASTKGPSVFPLAPSSKSTSGGTAALGCLVKDYFPEPVTVSWNSGALTSGVHTFPAVLQSSGLYSLSSVVTVPSSSLGTQTYICNVNHKPSNTKVDKRVEPKSCDKGGGGSGGGGSGGGGSQVQLVQSGAEVKKPGASVKVSCKASGYTFSDFWMQWIRQAPGQGLEWIGAIYPGDDDARVTQKFRGRATLTADKSTSTAYMELSSLRSEDTAVYYCARRGIAAVVGGFDYWGQGTTLTVSSASTKGPSVFPLAPSSKSTSGGTAALGCLVKDYFPEPVTVSWNSGALTSGVHTFPAVLQSSGLYSLSSVVTVPSSSLGTQTYICNVNHKPSNTKVDKRVEPKSCDK
light: B1 light
notes: two light chains follow from the format; also called ELB01132; D12 Fab linker Fab
The term EC50 (read off the curve) denotes the concentration at which the effect is half-maximal. Higher therefore signals a need for much substance. Regarding B2, in assay [7], the half-maximal effective concentration (EC50 (read off the curve)) is approximately 2 nM.

B3: anti-CD160 H7 antibody in the human IgG1 format (antibody)
heavy: not shown
light: B1 light
notes: also called H7 IgG1; ELB02101
On to B3, for which the dissociation constant (Kd) in assay [3] turned out to be 2.94 nM; in [5], 12 nM; in [6] it was 2.94 nM; in assay [8], 4 nM; in [9], 2.94 nM. The koff came out at 0.00109 s⁻¹ in assay [3]; 0.00251 s⁻¹ in assay [5]; 0.00109 s⁻¹ in assay [6]; 0.00235 s⁻¹ in [8]; 0.00109 s⁻¹ in assay [9]. For the same molecule, the kon in assay [3] worked out at 370000 M⁻¹ s⁻¹; in assay [5], 209000 M⁻¹ s⁻¹; in assay [6], 370000 M⁻¹ s⁻¹; in assay [8], 587000 M⁻¹ s⁻¹; in [9], 370000 M⁻¹ s⁻¹. Further, the “Binding response, at 50 nM of anti-CD160” value in assay [8] was 1.01 nm (arbitrary units).

B4: D12 in the IgG1 E345K format (antibody)
heavy: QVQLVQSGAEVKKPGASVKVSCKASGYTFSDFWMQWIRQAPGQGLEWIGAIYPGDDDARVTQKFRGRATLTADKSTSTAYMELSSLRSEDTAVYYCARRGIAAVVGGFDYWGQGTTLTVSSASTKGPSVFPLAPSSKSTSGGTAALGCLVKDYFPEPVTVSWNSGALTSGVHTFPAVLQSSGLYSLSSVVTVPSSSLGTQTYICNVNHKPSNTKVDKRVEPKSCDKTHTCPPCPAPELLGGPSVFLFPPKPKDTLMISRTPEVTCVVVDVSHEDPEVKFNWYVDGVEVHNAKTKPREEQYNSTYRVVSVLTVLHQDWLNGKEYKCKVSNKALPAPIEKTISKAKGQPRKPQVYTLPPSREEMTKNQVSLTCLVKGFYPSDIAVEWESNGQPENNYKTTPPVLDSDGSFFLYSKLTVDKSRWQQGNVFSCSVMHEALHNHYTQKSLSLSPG
light: B1 light
notes: also called ELB02112
With B4, in assay [2], the “EC50 of IFN-gamma production by NK cells, additional improvement against the IgG1 variants” value stood at 2 logs and the “EC50 of IFN-gamma production by NK cells, improvement against ELB02101” value amounted to 4 logs. In addition, in assay [4], the “median fluorescence, factor” value came out at 3 fold. Further, in [10], the Kd stood at 1.52 nM, the koff was determined as 0.000679 s⁻¹ and the kon came out at 447000 M⁻¹ s⁻¹.

B5: A09 in the IgG1 format (antibody)
heavy: not shown
light: B1 light
notes: also called ELB02104; H7 A09 variant in IgG1 format
B5: the “Gain in KD/respective IgG” value in assay [1] was found to be 2 fold. The “EC50 of NK cell activation (IFN-γ, CD69), improvement against ELB02101” value in [2] was 2 to 3 logs. Besides, in [3], the Kd was determined as 1.47 nM, the koff stood at 0.000651 s⁻¹ and the on-rate constant (kon) amounted to 442000 M⁻¹ s⁻¹. In [4], the “median fluorescence, factor” value was determined as 3 fold. In [5], the “Gain in KD/respective IgG” value is 3 fold, the Kd was 3.9 nM, the koff was 0.000877 s⁻¹ and the kon was 223000 M⁻¹ s⁻¹. Also, in assay [6], the Kd was found to be 1.47 nM, the koff came out at 0.000651 s⁻¹ and the kon came to 442000 M⁻¹ s⁻¹.

B6: A09 in the IgG1 E345K format (antibody)
heavy: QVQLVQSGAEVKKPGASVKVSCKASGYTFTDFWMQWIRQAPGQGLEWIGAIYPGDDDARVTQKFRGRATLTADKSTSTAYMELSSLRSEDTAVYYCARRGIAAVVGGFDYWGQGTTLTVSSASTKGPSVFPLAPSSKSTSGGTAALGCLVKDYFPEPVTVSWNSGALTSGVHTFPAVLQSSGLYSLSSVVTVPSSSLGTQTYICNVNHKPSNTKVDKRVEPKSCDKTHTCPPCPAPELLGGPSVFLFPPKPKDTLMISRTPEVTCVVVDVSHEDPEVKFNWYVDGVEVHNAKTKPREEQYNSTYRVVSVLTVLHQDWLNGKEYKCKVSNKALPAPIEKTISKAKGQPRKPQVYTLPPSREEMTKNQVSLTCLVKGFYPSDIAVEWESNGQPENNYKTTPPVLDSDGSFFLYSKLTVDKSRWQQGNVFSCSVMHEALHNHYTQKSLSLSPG
light: B1 light
notes: also called ELB02114
As for B6, in assay [2], the “EC50 of IFN-gamma production by NK cells, additional improvement against the IgG1 variants” value was 2 logs and the “EC50 of IFN-gamma production by NK cells, improvement against ELB02101” value worked out at 4 logs. In addition, the “median fluorescence, factor” value in assay [4] stood at 3 fold. Besides, in [10], the Kd was found to be 1.93 nM, the off-rate constant (koff) turned out to be 0.000825 s⁻¹ and the on-rate (kon) worked out at 427000 M⁻¹ s⁻¹.
